Substitutions are numbered along the chain they refer to. Names may count otherwise.
B1: CyPPO10 S60T + V165S + F360I: CyPPO10 (SEQ ID NO: 2) PPO variant (protein)
chain: MIEVDVAIVGGGLSGLSVAWRLQRSAPHYSGVLLEASDRLGGNITTQAAEGFVWELGPNTFAPTPALLQLIAEVGLHSELIRGDRHLPRYIYWRGELYPLEPTRPLALATSNLLSPWGKVRAALGALGFVPPYLGSGDESVDSFFRRHLGQEVAERLVAPFVSGSYAGDPQQLSAAAAFRRIAQLEKLGGSLIAGALRLRRQQPPQPKPPAQVQMRPGELGSFREGLAALPRAIAQQLKAPLHLQTPVEAITPEPKGGYLLRSGEQTWHARSVVLATPAYQTAELVAPFQPAIARALATIPYPTVACVVLAYPAGLGRSVRPGFGVLVPRGQGIRTLGTIWSSCLFPQRTPAGWQVFTSIIGGATDPDLASLREEAIVEQVQQDLTRLLDLPAAKARLLGMKVWRRAIPQYIVGYPQQWQQVTHALTQTPGLFLCSNYAEGVALGDRVEHGNRTAAAVAAYLAGGQS
modifications: Synthetic CyPPO10
B2: CyPPO10 S60T + I340T + F360I: CyPPO10 (SEQ ID NO: 2) PPO variant (protein)
chain: B1 chain with S165V, I340T
modifications: Synthetic CyPPO10
B3: CyPPO10 R89V + F360I: CyPPO10 (SEQ ID NO: 2) PPO variant (protein)
chain: B1 chain with T60S, R89V, S165V
modifications: Synthetic CyPPO10
B4: CyPPO10 R89L + F360I: CyPPO10 (SEQ ID NO: 2) PPO variant (protein)
chain: B1 chain with T60S, R89L, S165V
modifications: Synthetic CyPPO10
B5: CyPPO10 A167I + F360M: CyPPO10 (SEQ ID NO: 2) PPO variant (protein)
chain: B1 chain with T60S, S165V, A167I, I360M
modifications: Synthetic CyPPO10
B6: CyPPO10 V165C + F360M: CyPPO10 (SEQ ID NO: 2) PPO variant (protein)
chain: B1 chain with T60S, S165C, I360M
modifications: Synthetic CyPPO10
B7: CyPPO10 V305L + F360M: CyPPO10 (SEQ ID NO: 2) PPO variant (protein)
chain: B1 chain with T60S, S165V, V305L, I360M
modifications: Synthetic CyPPO10
B8: CyPPO10 V165C + A167C + F360M: CyPPO10 (SEQ ID NO: 2) PPO variant (protein)
chain: B1 chain with T60S, S165C, A167C, I360M
modifications: Synthetic CyPPO10
B9: CyPPO10 V165C + A167I + F360M: CyPPO10 (SEQ ID NO: 2) PPO variant (protein)
chain: B1 chain with T60S, S165C, A167I, I360M
modifications: Synthetic CyPPO10
B10: CyPPO10 V165C + A167L + F360M: CyPPO10 (SEQ ID NO: 2) PPO variant (protein)
chain: B1 chain with T60S, S165C, A167L, I360M
modifications: Synthetic CyPPO10
B11: CyPPO10 R89A + A167L + F360M: CyPPO10 (SEQ ID NO: 2) PPO variant (protein)
chain: B1 chain with T60S, R89A, S165V, A167L, I360M
modifications: Synthetic CyPPO10
B12: CyPPO10 I408R + F360M: CyPPO10 (SEQ ID NO: 2) PPO variant (protein)
chain: B1 chain with T60S, S165V, I360M, I408R
modifications: Synthetic CyPPO10
B13: CyPPO10 I408W + F360M: CyPPO10 (SEQ ID NO: 2) PPO variant (protein)
chain: B1 chain with T60S, S165V, I360M, I408W
modifications: Synthetic CyPPO10
B14: CyPPO10 R89A: CyPPO10 (SEQ ID NO: 2) PPO variant (protein)
chain: B1 chain with T60S, R89A, S165V, I360F
modifications: Synthetic CyPPO10
B15: CyPPO10 F161A: CyPPO10 (SEQ ID NO: 2) PPO variant (protein)
chain: B1 chain with T60S, F161A, S165V, I360F
modifications: Synthetic CyPPO10
B16: CyPPO10 V165C: CyPPO10 (SEQ ID NO: 2) PPO variant (protein)
chain: B1 chain with T60S, S165C, I360F
modifications: Synthetic CyPPO10
B17: CyPPO10 A167L: CyPPO10 (SEQ ID NO: 2) PPO variant (protein)
chain: B1 chain with T60S, S165V, A167L, I360F
modifications: Synthetic CyPPO10
B18: CyPPO10 Q184G: CyPPO10 (SEQ ID NO: 2) PPO variant (protein)
chain: B1 chain with T60S, S165V, Q184G, I360F
modifications: Synthetic CyPPO10
B19: CyPPO10 F324V: CyPPO10 (SEQ ID NO: 2) PPO variant (protein)
chain: B1 chain with T60S, S165V, F324V, I360F
modifications: Synthetic CyPPO10
B20: CyPPO10 L327T: CyPPO10 (SEQ ID NO: 2) PPO variant (protein)
chain: B1 chain with T60S, S165V, L327T, I360F
modifications: Synthetic CyPPO10
B21: CyPPO10 I340T: CyPPO10 (SEQ ID NO: 2) PPO variant (protein)
chain: B1 chain with T60S, S165V, I340T, I360F
modifications: Synthetic CyPPO10
B22: CyPPO10 F360T: CyPPO10 (SEQ ID NO: 2) PPO variant (protein)
chain: B1 chain with T60S, S165V, I360T
modifications: Synthetic CyPPO10
B23: CyPPO13 F373L: CyPPO13 (SEQ ID NO: 4) PPO variant (protein)
chain: MNPATPEPLNAEVVVIGAGISGLTLAWRLQQGLSARGGSPQAVLLAEASSRVGGCISTQSKDGYRWEEGPNSFTPTPALLNLIAEVGLTDQLVLADAKLPRYIYWEGALLPVPLSPAAALGSRLLSVGGKLRALQGLLGFVPPPPGHEETVRQFFRRQLGSEVAERLVEPFTSGVYAGDPDQLSAVAAFPRVAGLEERYGSLFAGALQALRQRPQPSPAAIQPPPKRGQLGNLRQGLQQLPEALAQKLGDSLRLGWRALQLKRAGELYWVGFETPEGSRWVAARQVVLALPAYEAAALLQELNPPASQLLAEILYPPVAVVALAYPQEALPQPLRGFGHLIPRSQGLRTLGTIWASCLFPERAPQGYHSFLSLLGGATDAALARRRGIPPIPALSPEERAQIAHAELSQVLLTRRAEPVYLGERLWPRAIPQYTLGHRQRIAQVQAHLASQTPGIWVCANYLDGVALGDCVRRAEALAQQLLSQV
modifications: Synthetic CyPPO13
B24: CyPPO13 F373V: CyPPO13 (SEQ ID NO: 4) PPO variant (protein)
chain: B23 chain with L373V
modifications: Synthetic CyPPO13

What was measured:
CyPPO10 = experiment: PPO enzyme activity and IC50 by herbicides, CyPPO10 wild type and variants (MBP-PPO fusion); assay type: biochemical, Thermosynechococcus elongatus BP-1; conditions: PPO enzyme activity of CyPPO10 protein, wild type = 100
Procedure: (§1) The enzyme activities of PPO protein and PPO protein variants were examined, and inhibition assay by PPO-inhibiting herbicides was conducted. It was confirmed that the PPO protein has low water-solubility, but in case of being expressed as a fusion protein with MBP (maltose binding protein) (MBP-PPO), the PPO protein is able to be stably expressed as water-soluble form. Therefore, the wild type and variant proteins which were expressed in the form of fusion protein with MBP were used in the present test (refer to FIG. 4).
(§2) In order to express wild type genes and mutant genes of CyPPO10 and CyPPO13 (refer to Example 1 and Example 4), those genes were introduced to pMAL-c2X vector (refer to FIG. 5) respectively, and then cloned to BL21 (DE3) E. coli (CodonPlus).
(§3) The enzyme activity of the purified wild type protein and variant proteins of CyPPO10 and CyPPO13 was measured by the following process.
(§4) At first, a substrate of PPO protein, Protoporphyrinogen IX was synthesized. This process was performed in the space where nitrogen gas is streamed. 6 mg of protoporphyrin IX was dissolved in 20% (v/v) EtOH 20 ml, and stirred under dark condition for 30 minutes. The obtained protoporphyrinogen IX solution was put into a 15 ml screw tube in an amount of 800 and flushed with nitrogen gas for 5 minutes. To this, 1 g of sodium amalgam was added and vigorous shaking was performed for 2 minutes. The lid was open to exhaust hydrogen gas in the tube. Thereafter, the lid was closed and incubated for 3 minutes. The […] was filtered using syringe and cellulose membrane filter. To 600 μl of the obtained […], 2M MOPS [3-(N-morpholino)propanesulfonic acid] was added in an amount of approximately 300 thereby adjusting pH to 8.0. To determine the enzyme activity of PPO protein, a reaction mixture was prepared with the following composition (based on 10 ml): 50 mM Tris-Cl (pH 8.0); 50 mM NaCl; 0.04% (v/v) Tween 20; 40 mM glucose (0.072 g); 5 units glucose oxidase (16.6 mg); and 10 units catalase (1 μl).
(§5) Two hundred microliters (200 μl) of reaction mixture containing a purified PPO protein were placed in 96 well plates, and preincubated for 30 min at room temperature to reduce the oxygen concentration by the reaction of glucose oxidase-catalase. The mineral oil was layered and then the reaction was initiated by adding the substrate, […], to a final concentration of 50 μM. The reaction proceeded at room temperature for 30 min and the fluorescence of protoporphyrin IX was measured using Microplate reader (Sense, Hidex) (excitation: 405 nm; emission: 633 nm). To calculate the PPO enzyme activity, protoporphyrinogen IX solution was kept open in the air to oxidize the solution (overnight). To this, 2.7N HCl was added, and the absorbance at 408 nm was measured. A standard curve was generated using standard protoporphyrin IX, and the PPO activity was measured by calibration of protoporphyrin IX using the standard curve of protoporphyrin IX.
(§6) The final concentration of each herbicide was as follows: […]

CyPPO13 = experiment: PPO enzyme activity and IC50 by herbicides, CyPPO13 wild type and variants (MBP-PPO fusion); assay type: biochemical, Synechococcus sp. JA-3-3Ab; conditions: PPO enzyme activity of CyPPO13 protein, wild type = 100
Procedure: as §1, §2, §3, §4, §5, §6

Molecule	Activity (%) (CyPPO10)	Activity (%) (CyPPO13)
B1	12%	–
B2	5%	–
B3	57%	–
B4	51%	–
B5	85%	–
B6	93%	–
B7	82%	–
B8	91%	–
B9	75%	–
B10	83%	–
B11	7%	–
B12	5%	–
B13	5%	–
B14	83%	–
B15	92%	–
B16	99%	–
B17	95%	–
B18	97%	–
B19	59%	–
B20	84%	–
B21	19%	–
B22	85%	–
B23	–	82%
B24	–	83%
